In US12339286B2, “Metal-reducing enzymatic tag for optical and electron microscopy” (Colorado State University Research Foundation, priority 2018, dated 2025):
Values joined by “and” are separate entries in the source; they are usually repeats but may differ in a detail not shown here. Identical values can stand only once. Ends that are not written are not given here.

T1: Pseudomonas moraviensis stanleyea GRLMR-SeBP (glutathione reductase-like metalloid reductase, GRLMR, with the selenium nanoparticle binding peptide SeBP/SeBP1, (Pseudomonas moraviensis, UniProt A0A2A2PF31, INS452LTPHKHHKHLHA))
T1 sequence (A0A2A2PF31 1-452 INS452LTPHKHHKHLHA): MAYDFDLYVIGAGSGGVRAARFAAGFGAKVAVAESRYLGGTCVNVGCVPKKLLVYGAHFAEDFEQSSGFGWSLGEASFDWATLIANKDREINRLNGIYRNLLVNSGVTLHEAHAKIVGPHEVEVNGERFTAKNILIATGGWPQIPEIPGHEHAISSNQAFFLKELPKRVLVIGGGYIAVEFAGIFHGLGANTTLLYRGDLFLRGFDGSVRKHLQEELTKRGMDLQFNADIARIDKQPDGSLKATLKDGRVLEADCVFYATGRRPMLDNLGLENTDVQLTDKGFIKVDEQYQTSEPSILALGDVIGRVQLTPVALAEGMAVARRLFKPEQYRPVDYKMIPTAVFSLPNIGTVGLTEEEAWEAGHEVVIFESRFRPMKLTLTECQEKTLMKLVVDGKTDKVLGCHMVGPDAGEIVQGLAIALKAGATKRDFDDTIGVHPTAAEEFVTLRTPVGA


How the values were obtained:
[1] = target: Pseudomonas moraviensis stanleyea GRLMR (glutathione reductase-like metalloid reductase), without SeBP (Pseudomonas moraviensis, UniProt A0A2A2PF31); test: KM and kcat study: NADPH consumption at 340 nm, V0 vs substrate concentration; assay type: biochemical; details: substrate HNaSeO3; PBS, pH 7.4; 13 μg of enzyme; 200 μM NADPH; 0.05 mM-2 mM substrate
From the text: (§1) Because of the dramatic difference in SeBP size, morphology and aggregation state that depends on SeBP concatenation to GRLMR, whether this concatenation also alters the kinetic properties of the enzyme was investigated. To explore this possibility, NADPH concentrations were monitored spectroscopically during GRLMR enzymatic reactions to establish fundamental enzymatic kinetics in the presence and absence of the peptide. FIG. 4 depicts the plots of V0s attained by the GRLMR with and without SeBP over a range of substrate concentrations.
(§2) Initial velocities (V0) of the GRLMR-SeBP were performed in various concentrations of HNaSeO3 or GSSG while monitoring 340 nm correlating to NADPH absorbance. The reactions were run in PBS, pH 7.4 and with 13 μg of enzyme with substrate SeO3^2− (1.5 μg of enzyme with substrate GSSG) and 200 μM of NADPH with 0.05 mM-2 mM of substrate. Enzymatic V0s were plotted against substrate concentration in OriginPro from which KM and kcat could then be calculated.

[2] = target: T1, Pseudomonas moraviensis stanleyea GRLMR-SeBP (glutathione reductase-like metalloid reductase, GRLMR, with the selenium nanoparticle binding peptide SeBP/SeBP1,; test: as above; assay type: biochemical; details: substrate HNaSeO3; PBS, pH 7.4; 13 μg of enzyme; 200 μM NADPH; 0.05 mM-2 mM substrate
From the text: as §1, §2

[3] = target: glutathione reductase-like metalloid reductase (GRLMR) (Pseudomonas moraviensis stanleyae); test: negative binding assay: phage (input 10^10 pfu) on wells coated with unreacted GRLMR, acid-eluted phage titered on E. coli

Sequence of Wild Type M13 phage (no inserted sequence) (P69168 19-424 limits assumed): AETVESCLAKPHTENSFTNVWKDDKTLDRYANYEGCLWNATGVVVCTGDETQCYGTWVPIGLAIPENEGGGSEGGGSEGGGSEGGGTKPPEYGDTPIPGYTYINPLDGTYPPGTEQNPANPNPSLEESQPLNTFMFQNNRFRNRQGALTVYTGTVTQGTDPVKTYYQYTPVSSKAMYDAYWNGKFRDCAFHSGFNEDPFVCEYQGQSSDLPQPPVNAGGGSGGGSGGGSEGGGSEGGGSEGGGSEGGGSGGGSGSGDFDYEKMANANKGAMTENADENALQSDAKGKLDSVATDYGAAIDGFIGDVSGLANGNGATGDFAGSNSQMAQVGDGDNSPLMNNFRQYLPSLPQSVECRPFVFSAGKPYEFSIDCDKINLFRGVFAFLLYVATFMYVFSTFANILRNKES

| Molecule | eluted phage titer (pfu) [3] | other results |
| --- | --- | --- |
| O=[Se]([O-])O.[Na+] [HNaSeO3] |  | Km [1]: 1920 ± 1280 µM; kcat [1]: 0.38038 ± 0.1473 s⁻¹ and 0.38038 s⁻¹; Km [2]: 217 ± 57 µM; kcat [2]: 0.67193 ± 0.04143 s⁻¹ and 0.67193 s⁻¹ |
| Wild Type M13 phage (no inserted sequence) (from UniProt P69168 19-424) | 150000 pfu |  |
| GPHHMHHHRTHH-{M13 pIII} (peptide, not shown: large carriers, also: displayed on M13 phage pIII, linker not given here) [SeBP2 (…) displayed on M13 phage] | 2.1e+09 pfu |  |
| WPRHHWHTNYMR-{M13 pIII} (peptide, not shown: large carriers, also: displayed on M13 phage pIII, linker not given here) [SeBP3 (…) displayed on M13 phage] | 3.9e+08 pfu |  |
| THYNPLRINPIT-{M13 pIII} (peptide, not shown: large carriers, also: displayed on M13 phage pIII, linker not given here) [SeBP5 (…) displayed on M13 phage] | 680000 pfu |  |
| GWHSPHAHWRVK-{M13 pIII} (peptide, not shown: large carriers, also: displayed on M13 phage pIII, linker not given here) [SeBP4 (…) displayed on M13 phage] | 330000 pfu |  |
